One test deals with Hda (E. coli) (UniProt P69931). The test is described as follows: SEC. Background: SEC sorts molecules by how far they enter the pores of the column.
Another test concerns the target T1, DnaA (wtDnaA) (Escherichia coli, UniProt P03004, H202Y).
T1 sequence (P03004 1-467 H202Y): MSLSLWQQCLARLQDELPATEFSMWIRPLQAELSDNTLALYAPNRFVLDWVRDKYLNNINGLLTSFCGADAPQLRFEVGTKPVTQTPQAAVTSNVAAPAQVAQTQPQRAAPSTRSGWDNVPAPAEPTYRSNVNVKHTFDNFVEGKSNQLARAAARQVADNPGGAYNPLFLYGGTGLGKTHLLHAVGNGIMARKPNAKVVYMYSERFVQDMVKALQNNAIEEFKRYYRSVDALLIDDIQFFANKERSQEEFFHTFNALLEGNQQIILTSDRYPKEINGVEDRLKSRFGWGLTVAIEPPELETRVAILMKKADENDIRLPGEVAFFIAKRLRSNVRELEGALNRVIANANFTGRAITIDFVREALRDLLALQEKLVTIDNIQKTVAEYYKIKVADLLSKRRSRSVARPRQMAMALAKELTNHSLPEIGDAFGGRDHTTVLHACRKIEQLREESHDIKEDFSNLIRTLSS
Put plainly: ATP binding assay.

Turning to “Hda (from UniProt P69931 1-233) (natural protein)”, the stoichiometry N with Hda (E. coli) came to 2. At DnaA (wtDnaA), `Nc1ncnc2c1ncn2[C@@H]1O[C@H](COP(=O)(O)OP(=O)(O)OP(=O)(O)O)[C@@H](O)[C@H]1O` [ATP] came in with a Kd of 360 nM.

The stoichiometry N is a count of units in the complex or per binding partner. One may read the Kd as the equilibrium constant for the complex coming apart.
